# Results: patent publication US20260014232A1, “Pharmaceutical Composition of GLP-1 and GIP Receptor Dual Agonist and Use Thereof” (Jiangsu Hengrui Pharmaceuticals Co., Ltd., priority 2021, published 2026)
# Starred links: 1 amine or outer side, 2 acyl side, 3 side chain; linkers in the order of their positions; H or OH if unused. Non-standard residues stand in square brackets, D forms with d. Groups on a side chain read outwards from the residue. No end group written: not given here. *: point of attachment. Arachidoyl = CCCCCCCCCCCCCCCCCCCC(=O)*; γGlu = O=C(O)[C@H](CCC(=O)[*:2])N[*:1]; AEEA = NCCOCCOCC(=O)O; Aib = CC(C)(N)C(=O)O
# B1: compound 15# (peptide)
# peptide: Y[Aib]EGTFTSDYSIYK([AEEA-AEEA-γGlu-Arachidoyl])ERIAAQEFINWLIAGGPSSGAPPPS-NH2
# modifications: N-terminus assumed
# SMILES: CCCCCCCCCCCCCCCCCCCC(=O)N[C@@H](CCC(=O)NCCOCCOCC(=O)NCCOCCOCC(=O)NCCCC[C@H](NC(=O)[C@H](Cc1ccc(O)cc1)NC(=O)[C@@H](NC(=O)[C@H](CO)NC(=O)[C@H](Cc1ccc(O)cc1)NC(=O)[C@H](CC(=O)O)NC(=O)[C@H](CO)NC(=O)[C@@H](NC(=O)[C@H](Cc1ccccc1)NC(=O)[C@@H](NC(=O)CNC(=O)[C@H](CCC(=O)O)NC(=O)C(C)(C)NC(=O)[C@@H](N)Cc1ccc(O)cc1)[C@@H](C)O)[C@@H](C)O)[C@@H](C)CC)C(=O)N[C@@H](CCC(=O)O)C(=O)N[C@@H](CCCNC(=N)N)C(=O)N[C@H](C(=O)N[C@@H](C)C(=O)N[C@@H](C)C(=O)N[C@@H](CCC(N)=O)C(=O)N[C@@H](CCC(=O)O)C(=O)N[C@@H](Cc1ccccc1)C(=O)N[C@H](C(=O)N[C@@H](CC(N)=O)C(=O)N[C@@H](Cc1c[nH]c2ccccc12)C(=O)N[C@@H](CC(C)C)C(=O)N[C@H](C(=O)N[C@@H](C)C(=O)NCC(=O)NCC(=O)N1CCC[C@H]1C(=O)N[C@@H](CO)C(=O)N[C@@H](CO)C(=O)NCC(=O)N[C@@H](C)C(=O)N1CCC[C@H]1C(=O)N1CCC[C@H]1C(=O)N1CCC[C@H]1C(=O)N[C@@H](CO)C(N)=O)[C@@H](C)CC)[C@@H](C)CC)[C@@H](C)CC)C(=O)O
# B2: compound 17# (peptide)
# peptide: Y[Aib]EGTFTSDYSIYK([AEEA-AEEA-γGlu-Arachidoyl])ERIAAQEFVNWLLAGGPSSGAPPPS-NH2
# modifications: N-terminus assumed
# SMILES: CCCCCCCCCCCCCCCCCCCC(=O)N[C@@H](CCC(=O)NCCOCCOCC(=O)NCCOCCOCC(=O)NCCCC[C@H](NC(=O)[C@H](Cc1ccc(O)cc1)NC(=O)[C@@H](NC(=O)[C@H](CO)NC(=O)[C@H](Cc1ccc(O)cc1)NC(=O)[C@H](CC(=O)O)NC(=O)[C@H](CO)NC(=O)[C@@H](NC(=O)[C@H](Cc1ccccc1)NC(=O)[C@@H](NC(=O)CNC(=O)[C@H](CCC(=O)O)NC(=O)C(C)(C)NC(=O)[C@@H](N)Cc1ccc(O)cc1)[C@@H](C)O)[C@@H](C)O)[C@@H](C)CC)C(=O)N[C@@H](CCC(=O)O)C(=O)N[C@@H](CCCNC(=N)N)C(=O)N[C@H](C(=O)N[C@@H](C)C(=O)N[C@@H](C)C(=O)N[C@@H](CCC(N)=O)C(=O)N[C@@H](CCC(=O)O)C(=O)N[C@@H](Cc1ccccc1)C(=O)N[C@H](C(=O)N[C@@H](CC(N)=O)C(=O)N[C@@H](Cc1c[nH]c2ccccc12)C(=O)N[C@@H](CC(C)C)C(=O)N[C@@H](CC(C)C)C(=O)N[C@@H](C)C(=O)NCC(=O)NCC(=O)N1CCC[C@H]1C(=O)N[C@@H](CO)C(=O)N[C@@H](CO)C(=O)NCC(=O)N[C@@H](C)C(=O)N1CCC[C@H]1C(=O)N1CCC[C@H]1C(=O)N1CCC[C@H]1C(=O)N[C@@H](CO)C(N)=O)C(C)C)[C@@H](C)CC)C(=O)O
# B3: compound 16# (peptide)
# peptide: Y[Aib]EGTFTSDYSIYK([AEEA-AEEA-γGlu-Arachidoyl])EKIAAQEFINWLLAGGPSSGAPPPS-NH2
# modifications: N-terminus assumed
# SMILES: CCCCCCCCCCCCCCCCCCCC(=O)N[C@@H](CCC(=O)NCCOCCOCC(=O)NCCOCCOCC(=O)NCCCC[C@H](NC(=O)[C@H](Cc1ccc(O)cc1)NC(=O)[C@@H](NC(=O)[C@H](CO)NC(=O)[C@H](Cc1ccc(O)cc1)NC(=O)[C@H](CC(=O)O)NC(=O)[C@H](CO)NC(=O)[C@@H](NC(=O)[C@H](Cc1ccccc1)NC(=O)[C@@H](NC(=O)CNC(=O)[C@H](CCC(=O)O)NC(=O)C(C)(C)NC(=O)[C@@H](N)Cc1ccc(O)cc1)[C@@H](C)O)[C@@H](C)O)[C@@H](C)CC)C(=O)N[C@@H](CCC(=O)O)C(=O)N[C@@H](CCCCN)C(=O)N[C@H](C(=O)N[C@@H](C)C(=O)N[C@@H](C)C(=O)N[C@@H](CCC(N)=O)C(=O)N[C@@H](CCC(=O)O)C(=O)N[C@@H](Cc1ccccc1)C(=O)N[C@H](C(=O)N[C@@H](CC(N)=O)C(=O)N[C@@H](Cc1c[nH]c2ccccc12)C(=O)N[C@@H](CC(C)C)C(=O)N[C@@H](CC(C)C)C(=O)N[C@@H](C)C(=O)NCC(=O)NCC(=O)N1CCC[C@H]1C(=O)N[C@@H](CO)C(=O)N[C@@H](CO)C(=O)NCC(=O)N[C@@H](C)C(=O)N1CCC[C@H]1C(=O)N1CCC[C@H]1C(=O)N1CCC[C@H]1C(=O)N[C@@H](CO)C(N)=O)[C@@H](C)CC)[C@@H](C)CC)C(=O)O
# Target: human glucose-dependent insulinotropic polypeptide receptor (GIPR) (human) (UniProt P48546)
# Test: cell-based or functional assay
row,Molecule,"Activity against human GIPR (EC50 nM); cAMP HTRF, CHO-K1 cells overexpressing hGIP receptor [nM]"
1,Semaglutide (peptide),> 10
2,Natural GIP (from UniProt P09681 52-93) (ligand),0.006

# Target: human glucagon-like peptide-1 receptor (GLP-1R) (human, UniProt P43220 24-463)
# Test: cell-based or functional assay
row,Molecule,"Activity against human GLP-1R (EC50 nM); cAMP HTRF, CHO-K1/GLP-1R/CRE-luc cells [nM]"
1,B1,0.015
2,B2,0.022
3,Y[Aib]EGTFTSDYSIYK([AEEA-AEEA-γGlu-Arachidoyl])EKIAAQEFVNWLLAGGPSSGAPPPS-NH2 [compound 18#],0.013
4,B3,0.029

# Target: T1, human glucose-dependent insulinotropic polypeptide receptor (GIPR) (human, UniProt P48546 22-466)
# T1 sequence (looked up): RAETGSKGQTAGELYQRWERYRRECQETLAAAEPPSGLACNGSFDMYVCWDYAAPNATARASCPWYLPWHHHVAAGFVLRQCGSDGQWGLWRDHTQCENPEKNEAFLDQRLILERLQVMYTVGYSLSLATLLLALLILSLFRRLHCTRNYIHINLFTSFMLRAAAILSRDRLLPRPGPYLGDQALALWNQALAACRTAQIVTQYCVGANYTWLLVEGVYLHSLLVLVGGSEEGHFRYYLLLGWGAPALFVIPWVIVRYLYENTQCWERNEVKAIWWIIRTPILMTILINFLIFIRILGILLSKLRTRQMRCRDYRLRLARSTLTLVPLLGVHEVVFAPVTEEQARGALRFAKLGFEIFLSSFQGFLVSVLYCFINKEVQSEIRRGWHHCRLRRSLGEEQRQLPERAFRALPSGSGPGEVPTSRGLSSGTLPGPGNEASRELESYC
# Test: cell-based or functional assay
row,Molecule,"Activity against human GIPR (EC50 nM); cAMP HTRF, CHO-K1 cells overexpressing hGIP receptor [nM]"
1,B1,0.23
2,B2,0.11
3,Y[Aib]EGTFTSDYSIYK([AEEA-AEEA-γGlu-Arachidoyl])EKIAAQEFVNWLLAGGPSSGAPPPS-NH2 [compound 18#],0.06
4,B3,0.095
